Measured values reported in the nanobody polyreactivity screen of Harvey et al. (2022).

Test: yeast display, Sf9 membrane polyspecificity reagent, FACS + sequencing; frameworks hold sequencing errors
How it was run: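 Galactose-induced (36–48 hours) yeast carrying a synthetic nanobody display library were exposed to 10% biotinylated, detergent-solubilized Sf9 membrane reagent at 4 °C for 1 hour. FACS followed streptavidin microbead enrichment, using low and high (top ~1%) gates for expression (anti-HA) and reagent binding (streptavidin). Colony PCR, MiSeq 2 × 250 sequencing and CDR-length filtering followed. Labels for polyreactivity reflect the gate of origin.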

Sequence | polyreactivity (PSR sort gate)
QVQLVESGGGLVQAGGILRLSCAASGSIFQTNAMGWYRPAPGKERELVAAISQRGGRTYYADSVKGRFTISRDYAKNTVYLHLKSLKPEDTAVYYGAATQSQRVHAARYGYWGQGSQVTVSS | high polyreactivity
QVQLVESGGGLVQAGGILRLSCAASGSIFYHYAMGWYRQAPGKDREFVAAITRRGTSTYYADSVKGRFTISRDIAKKTVYLQMNSLKPEDTAVYYWAARYGPNMDYWGQGTQVTVSS | high polyreactivity
QVQLVESGGGLVQAGGILRLSCAASGSIVVGYAMGWYRPAPGKERELVGAITGSGTRTDYADSVKGRFTISRDNAKNPVYLHMNSLKPEDTAVYNCAAPMSYKNVKYDYWGQGTQVTVSS | low polyreactivity
QVQLVESGGGLVQAGGILRLSCAASGSNFWTNAMGWYRQAPGKERELVARISPGGSTNYADSVKGRFTISRDNAKNTVYLQMNSLKPEDTAVYYCAAQRGYVYGYDYWGQGTQVTVSS | low polyreactivity
QVQLVESGGGLVQAGGILRLSCAASGSTFGYYAMGWYRPAPGKERELVAAIRSDDITYYADSVKGRFTISRDNAKNTVYLQMISLKPEDTAVYYCAVSQRYGGRRGCYWGQGTQVTVSS | low polyreactivity
QVQLVESGGGLVQAGGILRLSCAASGSTFIYNAMGLYRQAPGKEREFVASISASGGSTRYADSVKGRFTISRDNAKNTVYLQMNSLKQEDTAVYYCAKLLYLGRWRFPAGYNHWGQGTQVTVSS | high polyreactivity
QVQLVESGGGLVQAGGILRLSCAASGSTFNDYAMGRYRQAPGKERELVAAISASGSITYYADSVKGRFTISRDIAKNTVNLQMISLKPEDTAVYYCNARGYRGYDYWGQGTQVTVSS | high polyreactivity
QVQLVESGGGLVQAGGILRLSCAASGSTFRIYAKGWYRPAPGKERELVAGIRSSGGSTYYADSVKGRFTISRDKAKNTDYLQLNSLKPEDTAVYYCAKRHPYSWGSYQRYNYWGQGTQVTVSS | low polyreactivity
QVQLVESGGGLVQAGGILRLSCAASGSTFSYYAMGWYRQAPGKERELVARISKDTGSTYYADSVKGRFTISRDNAKNTVYLQMNSLKPEDTAVYYCAAELDYFPGYDYWGQGTQVTVSS | low polyreactivity
QVQLVESGGGLVQAGGILRLSCAASGSTFYRNAMGWYRQEPGKEREFVAAISFRGGGTYADSVKGRFTISRDNAKNTVYLQMNSLKPEDSAVYYCAAESKPRWYVRYDYWGQGTQVTVSS | low polyreactivity
QVQLVESGGGLVQAGGILRLSCAASVRIFGVYAMGWYRQAPGKERELVAAITSGGSTTYADSVKGRFTISRDNAKNNVYLQMNSLKQEDTAVYYCNKEPQPFFLYGYWGQGTQVTVSS | low polyreactivity
QVQLVESGGGLVQAGGILRLSCAAYGRTFYLYTMGWYRQEPGKERELVAAISRGGRTYADSVKGRFTISRDNAKNTVYLQMNSLKPEDTAVYYCADRGYFYYSRYDSWGQGTQVTVSS | low polyreactivity
QVQLVESGGGLVQAGGILRLSCDASGRIFYSYAMGWYRQAHGKERVLVAAIDESVGSKYYADSVKGRFTISRDNAKNTVYLHMNSLKREDTAVYYCAADYLLVLFYYWGQGTQVTVSS | low polyreactivity
QVQLVESGGGLVQAGGILRLSCPASGIIIPLYAMGWYIQAPGKERELVATINIGGSTNYADSVKGRFTISRDNAKNTVYLQMNSLKPEDTAVYYCAADVDSLQRYESWGQGTQVTVSS | low polyreactivity
QVQLVESGGGLVQAGGILRLSFAASGSTFYPNTMGWYRQAPGKERELVAAITNGGSTNYADSVKGRFTIARDNAKNTVYLQMNSLKPEDTAVYDCAADGYDQWGRDVVYLIWTSYDYWGQGTQVTVSS | high polyreactivity
QVQLVESGGGLVQAGGILRLSSAASGFTFSRNAMGWYRQAPGKERELVASISGRGGRTYYADSVKGRFTISRDNAKNTVSLQMNSLKPEDTAVYDCAARWRQRKSVRYGQQGYDYWGQGTQVSVSS | high polyreactivity
QVQLVESGGGLVQAGGNLRLSCAASGFIFTRYAMGWYRQAPGKERELVAAISTSGDRTYYADSVKGRFTISRDNAKNTVYLQMNSLKPEDTAVYYCATSKSYSSKLYDYWGQGTQVTVSS | high polyreactivity
QVQLVESGGGLVQAGGNLRLSCAASGGIFYLYAMGWYRPAPGKERELVASINWRSATTYYADSVKGRFTISRDNAKNTVYLQMNSLKPEDTAVYYCNVQWYGGYDYWGQGSQVTVSS | low polyreactivity
QVQLVESGGGLVQAGGNLRLSCAASGNIFYVYAMGWYRQAPGKERELVAAITRSGGRTYYADSVKGRFTISRDNAKNTVYLQMTSLKPEDTAVYYCAADRGVTRQKMDYWGQGTQVTVSS | low polyreactivity
QVQLVESGGGLVQAGGNLRLSCAASGRIFSSYAMGWYRQAPGKERELVAAITGTGGTTYYADSVKGRFTISRDNAKYTVYLQMNSLKPEDTAVYYCNAERIYRLSRDSAVQYDYWGQGTQVTVSS | low polyreactivity
QVQLVESGGGLVQAGGNLRLSCAASGSIFPRNAMGWYRQAPGKERELVAAISWRGGSTYYADSVKGRFTISRDNAKNTVYLQMNSLKPEDTAVYYCAATTYRSRYDYWGQGTQVTVSS | high polyreactivity
QVQLVESGGGLVQAGGRLGLSCAACGFICDGYAMGWYRQAPGKDRELVAAITGSGGSPYYADSVKGRFTISRDNAKNTVYLQMNSLKPEDTAVYYCNTDYYSVRSGSYWHFPGGDYWGQGTQVTVSS | low polyreactivity

Sequence | polyreactivity (PSR sort gate)
QVQLVESGGGLVQAGGRLLLSCAASGSTFDAYAMGWYRQAPGKERELVAAITNGGSTYYADSVKGRFTISRDNAKNTVYFQMNCLKPEDTAVYYCNAQHRTVWGIFGRFNYWGLGTQVTVSS | low polyreactivity
QVQLVESGGGLVQAGGRLPISCAASGLTFTSNAMGGYIQAPGKERELVASITWYGGSTSYADSVKGRFTISRDYAKNTVDFQMNSLKPEDTAVSYCAADAWRSYGYRAYYYWGQGTQVTVSS | high polyreactivity
QVQLVESGGGLVQAGGRLRFSCAASGSTFVNNAMGWYRQAPGKERELVAAISRRGGRTYYADSEKGRFTISRDNAKNTVYLQMKSLKPEDTAVYYCAADESRYDYWGQGTQVTVSS | high polyreactivity
QVQLVESGGGLVQAGGRLRISCAASGRTFYRYAMGWYRQAPGKERELVAAITYSGGSTNYADSVKGRFTISRDYAKNTVYLQMNSLKPEDTAVYYCATRYNVVRWPYYYWGQGTQVNVSS | high polyreactivity
QVQLVESGGGLVQAGGRLRISFAATGITSGRYAMGGYRQAPGNERELVAAISNSGGSTYYADSVKGRFTISRDNAKNTVYLQMNSLKPEDTAVYYCAARSASSRMDYWGQGTQVTVSS | high polyreactivity
QVQLVESGGGLVQAGGRLRLICAASGFIFGTYAMGWYRQAPGKEREFDAAINWGGGRTYYADSVKGRFTISRDNAKNTVYLQMISLKAEDTAVYYCNIRLIYYRGSYYSLRFDYWGQGTQVTLSS | high polyreactivity
QVQLVESGGGLVQAGGRLRLICAASGSIFVSYALGWYRQAPGKERELVAAISTTGGRTRYADSVKGRFTISRDNAQNTVYLQMNSLKPEDTAVYYCAAVGARKMYYWGQGTQVTVSS | high polyreactivity
QVQLVESGGGLVQAGGRLRLICAASGSTFVINDMGWYRQAPGKERELVASISWSGGDTYYADSVKGRFTISRDNAKNTVYLQMNSLKPEDTAVYYCNRVSPYGSYDYWGQGTQVTVSS | low polyreactivity
QVQLVESGGGLVQAGGRLRLRCDPSGLTSYYAMGWYRQAPGKERELVSRIRSRSGSTYYADSVKGRFTISRDNAKNTVYLQMNSLKPEDTAVYYCNARQLLYAIRDSWGQVTQVTVSS | high polyreactivity
QVQLVESGGGLVQAGGRLRLSCAASARIFYSKVMGWYRQAPGKERELVAAISGRTGGTYYADSVKGRFTISRDNAKNTVYLQMNSLKPEDTAVYYCAARVIDYYGSGPYDYWGQGTQVTVSS | low polyreactivity
QVQLVESGGGLVQAGGRLRLSCAASGAIFDRNVMGWYSQAPGQERELVAAISGSGGRTYYADSVKGRFTISRDNAKNTVYLQMNSLKPEDTAVYYCAARAFRVVPGGDYWGQGTQVTVSS | high polyreactivity
QVQLVESGGGLVQAGGRLRLSCAASGCTSGLNVRGWYRQAPGQERELVAAMSTGGGSTYYADSVKGPFTISRDNAKNTVYLQMTSLQPEDTAVYYCAADQSSVQDFIYNYWAQGTQVTVSS | low polyreactivity
QVQLVESGGGLVQAGGRLRLSCAASGFIFGSYAMGWYRQAPGKERELVAVISSSGGRTYYADSVKGRFTISRDNAKNTVYLQMNSLKPEDTAVYYCNAKSRLFPTYRIYDYWGQGTQVTVSS | high polyreactivity
QVQLVESGGGLVQAGGRLRLSCAASGFIFKQYVMGWYRQAPGKERELVAAISRSGGSTYYADSVKGRFTISRDNAKNTVYLQMNSLKPEDNAVYYCNADNYYPDYDSWGQGTQVTVSS | high polyreactivity
QVQLVESGGGLVQAGGRLRLSCAASGFIFLNYTMGWYRQAPGKEREMVADISNGSDRTYFADSLKGRFTISRENAKNTVYLQMNSLKPEDTAVYYCAKDRDFSSPPTESGFDYWGQGTQVTVSS | low polyreactivity
QVQLVESGGGLVQAGGRLRLSCAASGFIFPLYAMGWYRQAPGKERELVAAIRASSGSTYYADSVKGRFTISRDNAKNSVYLQMNSLKPEDTAVYYCNARQYVWYPYEYWGQGTQVTVSS | high polyreactivity
QVQLVESGGGLVQAGGRLRLSCAASGFIFWTYAMGWYRQAPGKERELVARISWSGGSTYYADSVKGRFTISRDTAKNTVYLQMNSLKPEDTAVYYCARLATLYESIEYDYWGQGTQVTVSS | low polyreactivity
QVQLVESGGGLVQAGGRLRLSCAASGFIHYAMGWYRQAPGNERELVAAIRHSGGSTYYADSVKGRFTISRDNANNTVYIHMNSLKPEDTAVYYCAASRSGVGYRMQYWGQGTQVTVSS | low polyreactivity
QVQLVESGGGLVQAGGRLRLSCAASGFKYAMGWYRQGPGKDRELVAAISSGGITSYADSVKGRFTISRDNAKNTVYLQMNSLKPEDTAVYYCNARLRHSQYAYYYWGQGTQVTVSS | high polyreactivity
QVQLVESGGGLVQAGGRLRLSCAASGFTCGVYDMGWYRQAPGKERALVADIDFTGGDTYYADSVKGRFTISRDNAKNTVYLQMIRLKPEDTAVYYCAARSWGVIYDYFYLGLDYWGQGTQVTVSS | low polyreactivity
QVQLVESGGGLVQAGGRLRLSCAASGFTFGDNAMGWYRQAPGKERELVAAITSSGSTNYADSVKGRFTISRDNAKNTVYLQMNSLKPEDTAVYYCNAEDSVDAPVYKDLGSEYDSWGQGTQVTVSS | low polyreactivity
